Measured values: US11426447B2, “Neuregulin for the treatment of tumors of the nervous system” (LEIBNIZ-INSTITUT FUR …, priority 2016, dated 2022)

What was measured:
pre-existing schwannomas = assay: rhNRG1 treatment of pre-existing schwannomas: maximum sciatic nerve diameter; format: in vivo, Nf2flox;P0-Cre;Nefh-Cre mutant mice; conditions: 3 months untreated, then 3 months systemic rhNRG1, vs vehicle
Description: A, Schematic representation of the protocol used to assess the efficacy of rhNRG1 treatment on pre-existing schwannomas. B, Quantification of maximum sciatic nerve diameters 3 and 6 months after nerve crush injury. Nf2flox;P0-Cre;Nefh-Cre mutant mice received either saline injections (vehicle) or intraperitoneal administration of rhNRH1 (** P<0.01 for differences between vehicle and rhNRG1-treated animals; n=6 animals per genotype; mean±SEM).
Three months after crush injury the right sciatic nerve of all animals was exposed surgically in order to assess sciatic nerve diameter as indicator for tumour size. Documentation was performed by video-assisted microscopy for each animal. Selected frames from the video files (using VirtualDub 1.6.19 software) were used to determine sciatic nerve diameter using ImageJ.
Two cohorts of animals underwent crush injury-induced schwannoma induction at the right sciatic nerve as described above (FIG. 5A). […] Then knockout animals (Nf2flox;P0-Cre;Nefh-Cre mutant animals) received either systemic rhNRG1 treatment or vehicle control applications for three months (FIG. 5A). […] (FIG. 5B)

neurofibromas = assay: Quantification of tumors in Nf1flox;Postn-Cre mice; format: in vivo; conditions: intraperitoneal rhNRG1 for three months, vs saline
Description: (§1) PFA-fixed tissue blocks derived from rhNRG1 and control treated animals containing lower spinal cord, lumbar dorsal root ganglions (DRG) as well as distal nerve proportions were cut in 4 planes per animal. Photographs were subsequently scanned and analyzed using the NanoZoomer Digital Pathology Software. The total area occupied by peripheral nerve tissue and dorsal root ganglion (DRG) tissue in mm^2 was quantified separately. Likewise, neoplastic tissue regions were identified and quantified separately for peripheral nerves and DRG areas. All quantitative analyses of tumorlets in Nf2flox;Postn-Cre mice were performed in blinded manner.
Another closely related but not similar entity of Schwann cell tumors are neurofibromas. As opposed to schwannomas, Schwann cells represent the primary neoplastic cell component of neurofibromas (Stemmer-Rachamimov et al., 2004; Rodriguez et al., 2012), but also incorporate a mixture of non-neoplastic components, including axons, perineurial cells, fibroblasts and inflammatory cells. In order to test a possible effect of rhNRG1 treatment on these tumors, which are a typical manifestation of the hereditary disease Neurofibromatosis type 1 (NF1), 4-month-old mutant Nf1flox;Postn-Cre animals as well as wildtype littermates were either treated with saline control injections or intraperitoneal rhNRG1 administration for three months (FIG. 9A). […]

intact nerves = assay: Morphometric analysis of nerve sections: myelin thickness of non-crushed, intact nerves; format: in vivo, wildtype mice; conditions: long-term treatment over 8 weeks, vs PBS control
Protocol: Analysis of axon calibre, myelination thickness and solidity factor was conducted on semi-thin and ultra-thin sections of the sciatic nerve removed from transcardially perfused mice. Mice were perfused with a solution containing 3% paraformaldehyde and 3% glutaraldehyde in 0.1 M phosphate buffer (pH 7.4). Sections were postfixed for 1 h and kept in fixative including 3% sucrose. Sections were obtained from the distal part of the sciatic nerve. Sectioning and staining were performed as described. Images of toluidine blue-stained semi-thin sections were taken using an Axioskop 2 MOT (Carl Zeiss, Germany) equipped with a 100× immersion oil objective and an Olympus XC50 digital camera (Olympus, Germany). Standardized settings for camera sensitivity, resolution (2,576×1,932 pixels) and brightness of illumination were used for all micrographs. Ultra-thin sections were analysed with an electron microscope (EM910, Carl Zeiss) equipped with an integrated TRS 1K digital camera (Carl Zeiss). Image analysis was conducted with ImageJ version 1.48u. RGB colour images obtained from semi-thin sections were split into single channels and the green channel was chosen for measurements. The image was contrasted using the auto function. Axon and myelin were circumscribed manually by the freehand selection tool. Based on the measured areas, the thicknesses of the axons and myelin sheaths were calculated. […]

[1] = system: tumorlets (neoplastic Schwann cell proliferation areas); assay: Quantification of tumorlets in Nf2flox;Postn-Cre mice; format: in vivo; conditions: 20 μg rhNRG1 per kg bodyweight ip for three months, vs control animals
Description: as §1
The in vivo results on the efficacy of rhNRG1 on schwannoma growth was tested as described in Example 1 however in a another animal model of schwannoma disease, the well-established Nf2flox;Postn-Cre mouse line, wherein a conditional Nf2 gene deletion is facilitated by the Periostin-Cre driver line (Nf2flox;Postn-Cre).
In this model all animals spontaneously develop spinal, peripheral and cranial nerve schwannomas over time (Gehlhausen et al., 2015). 4-month-old mutant Nf2flox;Postn-Cre animals as well as their corresponding wildtype littermates were either treated with saline control injections or intraperitoneal rhNRG1 administration for three months (FIG. 8A). […]

[2] = in vivo; cited from earlier work

B1: rhNRG1: EGF domain containing 7 kDa protein of recombinant human Neuregulin 1, purchased from Reprokine (#RKQ02297) (protein, listed as Homo sapiens)
chain: SHLVKCAEKEKTFCVNGGECFMVKDLSNPSRYLCKCPNEFTGDRCQNYVMASFYKHLGIEF
pre-existing schwannomas
  tumor size (maximum sciatic nerve diameter): markedly smaller
neurofibromas
  neurofibromas from distal parts of the nervous system (tumor fraction): significant effect
Intact nerves
  impact on the microarchitecture of intact nerves (myelin thickness, g-ratio): no obvious impact
[1]
  tumorlet fraction (area occupied by tumorlets relative to total nerve tissue area): significant reduction
[2]
  body weight: decrease in body weight
